Results published in paper PMC4434323.

Tests used:
[1] = biological target: T1, mnm-2 (C10A4.8) (Caenorhabditis elegans) (UniProt Q17895)
T1 sequence: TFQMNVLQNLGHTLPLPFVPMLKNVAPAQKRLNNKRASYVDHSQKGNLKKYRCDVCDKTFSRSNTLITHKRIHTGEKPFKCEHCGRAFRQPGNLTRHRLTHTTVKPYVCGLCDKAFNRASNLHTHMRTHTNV

[2] = biological target: egl-13 (T22B7.1) (Caenorhabditis elegans) (UniProt Q23045)
[3] = biological target: T2, elt-6 (F52C12.5) (Caenorhabditis elegans) (UniProt G5EGN3)
T2 sequence: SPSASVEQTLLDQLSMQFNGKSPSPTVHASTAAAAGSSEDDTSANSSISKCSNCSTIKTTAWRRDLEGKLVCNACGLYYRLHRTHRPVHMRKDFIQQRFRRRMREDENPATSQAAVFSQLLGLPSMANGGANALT

[4] = biological target: T3, elt-7 (C18G1.2) (Caenorhabditis elegans) (UniProt O61924)
T3 sequence: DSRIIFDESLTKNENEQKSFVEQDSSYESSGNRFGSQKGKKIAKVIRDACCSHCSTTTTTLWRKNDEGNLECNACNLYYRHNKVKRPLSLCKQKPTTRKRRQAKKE

[5] = biological target: T4, daf-19 (F33H1.1) (Caenorhabditis elegans) (UniProt Q09555)
T4 sequence: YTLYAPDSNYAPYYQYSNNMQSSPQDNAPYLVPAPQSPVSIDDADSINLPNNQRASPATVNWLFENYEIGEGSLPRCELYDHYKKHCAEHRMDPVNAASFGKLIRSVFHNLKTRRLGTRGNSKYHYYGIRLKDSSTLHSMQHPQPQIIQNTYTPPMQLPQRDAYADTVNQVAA

[6] = biological target: T5, daf-12 (F11A1.3) (Caenorhabditis elegans) (UniProt G5EFF5)
T5 sequence: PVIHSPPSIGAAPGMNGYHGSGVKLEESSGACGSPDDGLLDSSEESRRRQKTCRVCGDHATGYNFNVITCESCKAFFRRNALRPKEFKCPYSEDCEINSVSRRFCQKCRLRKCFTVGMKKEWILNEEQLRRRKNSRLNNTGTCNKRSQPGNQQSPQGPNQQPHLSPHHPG

Sequence of egl-13 (T22B7.1) (Caenorhabditis elegans) (Q23045 279-447): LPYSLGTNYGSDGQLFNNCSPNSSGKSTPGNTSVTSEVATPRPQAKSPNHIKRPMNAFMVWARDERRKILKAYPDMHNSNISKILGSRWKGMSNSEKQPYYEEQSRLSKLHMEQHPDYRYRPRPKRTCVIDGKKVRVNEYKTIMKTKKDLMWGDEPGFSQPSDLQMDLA

For “GCGGATCC (double strand) [8-mer GCGGATCC]”, the binding signal (PBM E-score (-0.5 to 0.5)) [1] was 0.472.

“GAACAATA (double strand) [8-mer GAACAATA]” gave a binding signal (PBM E-score (-0.5 to 0.5)) [2] of 0.478.

Sequence “ACTGATAA (double strand) [8-mer ACTGATAA]” has a binding signal (PBM E-score (-0.5 to 0.5)) [3] of 0.496 and a binding signal (PBM E-score (-0.5 to 0.5)) [4] of 0.476.

For “ATAACAAT (double strand) [8-mer ATAACAAT]”, the binding signal (PBM E-score (-0.5 to 0.5)) [2] was 0.471.

“TAACAATA (double strand) [8-mer TAACAATA]” showed a binding signal (PBM E-score (-0.5 to 0.5)) [2] of 0.464.

With “AAACAATA (double strand) [8-mer AAACAATA]” the binding signal (PBM E-score (-0.5 to 0.5)) [2] was 0.469.

In the case of “TAGCAACA (double strand) [8-mer TAGCAACA]”, the binding signal (PBM E-score (-0.5 to 0.5)) [5] is reported as 0.474.

With “CGTTGCTA (double strand) [8-mer CGTTGCTA]” the binding signal (PBM E-score (-0.5 to 0.5)) [5] was 0.489.

“CTGATAAC (double strand) [8-mer CTGATAAC]” showed a binding signal (PBM E-score (-0.5 to 0.5)) [3] of 0.493 and a binding signal (PBM E-score (-0.5 to 0.5)) [4] of 0.467.

Work on “GGTTGCTA (double strand) [8-mer GGTTGCTA]” yielded a binding signal (PBM E-score (-0.5 to 0.5)) [5] of 0.493.

“AGAACAAT (double strand) [8-mer AGAACAAT]” was tested, and the binding signal (PBM E-score (-0.5 to 0.5)) [2] was 0.469.

Work on “GATGCGCA (double strand) [8-mer GATGCGCA]” yielded a binding signal (PBM E-score (-0.5 to 0.5)) [1] of 0.484.

In the case of “CGTTATCA (double strand) [8-mer CGTTATCA]”, the binding signal (PBM E-score (-0.5 to 0.5)) [3] is reported as 0.493 and the binding signal (PBM E-score (-0.5 to 0.5)) [4] is reported as 0.478.

Sequence “ACAACAAT (double strand) [8-mer ACAACAAT]” has a binding signal (PBM E-score (-0.5 to 0.5)) [2] of 0.455.

“GCCGTTCC (double strand) [8-mer GCCGTTCC]” gave a binding signal (PBM E-score (-0.5 to 0.5)) [1] of 0.469.

With “TATGATAA (double strand) [8-mer TATGATAA]” the binding signal (PBM E-score (-0.5 to 0.5)) [4] was 0.457.

“ATGGCAAC (double strand) [8-mer ATGGCAAC]” showed a binding signal (PBM E-score (-0.5 to 0.5)) [5] of 0.468.

For “AACAATAG (double strand) [8-mer AACAATAG]”, the binding signal (PBM E-score (-0.5 to 0.5)) [2] was 0.485.

“GTAACTAA (double strand) [8-mer GTAACTAA]” was tested, and the binding signal (PBM E-score (-0.5 to 0.5)) [5] was 0.465.

For “CTAGCAAC (double strand) [8-mer CTAGCAAC]”, the binding signal (PBM E-score (-0.5 to 0.5)) [5] was 0.484.

With “CCTTATCA (double strand) [8-mer CCTTATCA]” the binding signal (PBM E-score (-0.5 to 0.5)) [3] was 0.496 and the binding signal (PBM E-score (-0.5 to 0.5)) [4] was 0.469.

In the case of “GCGCATCA (double strand) [8-mer GCGCATCA]”, the binding signal (PBM E-score (-0.5 to 0.5)) [1] is reported as 0.47.

Work on “TGATAACA (double strand) [8-mer TGATAACA]” yielded a binding signal (PBM E-score (-0.5 to 0.5)) [3] of 0.492 and a binding signal (PBM E-score (-0.5 to 0.5)) [4] of 0.458.

“GCGCATCC (double strand) [8-mer GCGCATCC]” showed a binding signal (PBM E-score (-0.5 to 0.5)) [1] of 0.487.

“GATGTGCA (double strand) [8-mer GATGTGCA]” gave a binding signal (PBM E-score (-0.5 to 0.5)) [1] of 0.457.

“CTGATAAG (double strand) [8-mer CTGATAAG]” was tested, and the binding signal (PBM E-score (-0.5 to 0.5)) [3] was 0.496 and the binding signal (PBM E-score (-0.5 to 0.5)) [4] was 0.472.

“GTAGCAAC (double strand) [8-mer GTAGCAAC]” showed a binding signal (PBM E-score (-0.5 to 0.5)) [5] of 0.46.

“GTTGCTAA (double strand) [8-mer GTTGCTAA]” showed a binding signal (PBM E-score (-0.5 to 0.5)) [5] of 0.487.

“AGCGCATC (double strand) [8-mer AGCGCATC]” was tested, and the binding signal (PBM E-score (-0.5 to 0.5)) [1] was 0.459.

For “GAAGTGCA (double strand) [8-mer GAAGTGCA]”, the binding signal (PBM E-score (-0.5 to 0.5)) [6] was 0.491 and the binding signal (PBM E-score (-0.5 to 0.5)) [1] was 0.459.

“GCACATCC (double strand) [8-mer GCACATCC]” gave a binding signal (PBM E-score (-0.5 to 0.5)) [1] of 0.46.

Sequence “GCGTATCC (double strand) [8-mer GCGTATCC]” has a binding signal (PBM E-score (-0.5 to 0.5)) [1] of 0.454.

“ATAGCAAC (double strand) [8-mer ATAGCAAC]” was tested, and the binding signal (PBM E-score (-0.5 to 0.5)) [5] was 0.489.

Sequence “GATGCGCC (double strand) [8-mer GATGCGCC]” has a binding signal (PBM E-score (-0.5 to 0.5)) [1] of 0.464.

In the case of “GCTGATAA (double strand) [8-mer GCTGATAA]”, the binding signal (PBM E-score (-0.5 to 0.5)) [3] is reported as 0.493 and the binding signal (PBM E-score (-0.5 to 0.5)) [4] is reported as 0.471.

Work on “ATGATAAG (double strand) [8-mer ATGATAAG]” yielded a binding signal (PBM E-score (-0.5 to 0.5)) [3] of 0.491 and a binding signal (PBM E-score (-0.5 to 0.5)) [4] of 0.457.
